In PMC12394548:

B1: VCPIP1^ΔUBX (aa Δ773-852) (enzyme)
chain: MSQPPPPPPPLPPPPPPPEAPQTPSSLASAAASGGLLKRRDRRILSGSCPDPKCQARLFFPASGSVSIECTECGQRHEQQQLLGVEEVTDPDVVLHNLLRNALLGVTGAPKKNTELVKVMGLSNYHCKLLSPILARYGMDKQTGRAKLLRDMNQGELFDCALLGDRAFLIEPEHVNTVGYGKDRSGSLLYLHDTLEDIKRANKSQECLIPVHVDGDGHCLVHAVSRALVGRELFWHALRENLKQHFQQHLARYQALFHDFIDAAEWEDIINECDPLFVPPEGVPLGLRNIHIFGLANVLHRPIILLDSLSGMRSSGDYSATFLPGLIPAEKCTGKDGHLNKPICIAWSSSGRNHYIPLVGIKGAALPKLPMNLLPKAWGVPQDLIKKYIKLEEDGGCVIGGDRSLQDKYLLRLVAAMEEVFMDKHGIHPSLVADVHQYFYRRTGVIGVQPEEVTAAAKKAVMDNRLHKCLLCGALSELHVPPEWLAPGGKLYNLAKSTHGQLRTDKNYSFPLNNLVCSYDSVKDVLVPDYGMSNLTACNWCHGTSVRKVRGDGSIVYLDGDRTNSRSTGGKCGCGFKHFWDGKEYDNLPEAFPITLEWGGRVVRETVYWFQYESDSSLNSNVYDVAMKLVTKHFPGEFGSEILVQKVVHTILHQTAKKNPDDYTPVNIDGAHAQRVGDVQGQESESQLPTKIILTGQKTKTLHKEELNMSKTERTIQQNITEQASVMQKRKTEKLKQEQKGQPRTVSPSTIRDGPSSAPATPTKAPYSPTTSSKAEGGQSAAAHSAHTVKQEDIAVTGKLSSKELQEQAEKEMYSLCLLATLMGEDVWSYAKGLPHMFQQGGVFYSIMKKTMGMADGKHCTFPHLPGKTFVYNASEDRLELCVDAAGHFPIGPDVEDLVKEAVSQVRAEATTRSRESSPSHGLLKLGSGGVVKKKSEQLHNVTAFQGKGHSLGTASGNPHLDPRARETSVVRKHNTGTDFSNSSTKTEPSVFTASSSNSELIRIAPGVVTMRDGRQLDPDLVEAQRKKLQEMVSSIQASMDRHLRDQSTEQSPSDLPQRKTEVVSSSAKSGSLQTGLPESFPLTGGTENLNTETTDGCVADALGAAFATRSKAQRGNSVEELEEMDSQDAEMTNTTEPMDHS
modifications: BODIPY, non-site-selective labelling, DOL 0.54, in the TR-FRET binding assay
B2: VCPIP1^(ΔVCPID ΔUBX) (aa Δ589-666, Δ773-852) (enzyme)
chain: MSQPPPPPPPLPPPPPPPEAPQTPSSLASAAASGGLLKRRDRRILSGSCPDPKCQARLFFPASGSVSIECTECGQRHEQQQLLGVEEVTDPDVVLHNLLRNALLGVTGAPKKNTELVKVMGLSNYHCKLLSPILARYGMDKQTGRAKLLRDMNQGELFDCALLGDRAFLIEPEHVNTVGYGKDRSGSLLYLHDTLEDIKRANKSQECLIPVHVDGDGHCLVHAVSRALVGRELFWHALRENLKQHFQQHLARYQALFHDFIDAAEWEDIINECDPLFVPPEGVPLGLRNIHIFGLANVLHRPIILLDSLSGMRSSGDYSATFLPGLIPAEKCTGKDGHLNKPICIAWSSSGRNHYIPLVGIKGAALPKLPMNLLPKAWGVPQDLIKKYIKLEEDGGCVIGGDRSLQDKYLLRLVAAMEEVFMDKHGIHPSLVADVHQYFYRRTGVIGVQPEEVTAAAKKAVMDNRLHKCLLCGALSELHVPPEWLAPGGKLYNLAKSTHGQLRTDKNYSFPLNNLVCSYDSVKDVLVPDYGMSNLTACNWCHGTSVRKVRGDGSIVYLDGDRTNSRSTGGKCGCGFKHFWDGKEYDNLNIDGAHAQRVGDVQGQESESQLPTKIILTGQKTKTLHKEELNMSKTERTIQQNITEQASVMQKRKTEKLKQEQKGQPRTVSPSTIRDGPSSAPATPTKAPYSPTTSSKAEGGQSAAAHSAHTVKQEDIAVTGKLSSKELQEQAEKEMYSLCLLATLMGEDVWSYAKGLPHMFQQGGVFYSIMKKTMGMADGKHCTFPHLPGKTFVYNASEDRLELCVDAAGHFPIGPDVEDLVKEAVSQVRAEATTRSRESSPSHGLLKLGSGGVVKKKSEQLHNVTAFQGKGHSLGTASGNPHLDPRARETSVVRKHNTGTDFSNSSTKTEPSVFTASSSNSELIRIAPGVVTMRDGRQLDPDLVEAQRKKLQEMVSSIQASMDRHLRDQSTEQSPSDLPQRKTEVVSSSAKSGSLQTGLPESFPLTGGTENLNTETTDGCVADALGAAFATRSKAQRGNSVEELEEMDSQDAEMTNTTEPMDHS
modifications: BODIPY, non-site-selective labelling, DOL 0.44, in the TR-FRET binding assay

Target: valosin-containing protein (VCP)/p97 (UniProt P55072)
Sequence (P55072 whole entry): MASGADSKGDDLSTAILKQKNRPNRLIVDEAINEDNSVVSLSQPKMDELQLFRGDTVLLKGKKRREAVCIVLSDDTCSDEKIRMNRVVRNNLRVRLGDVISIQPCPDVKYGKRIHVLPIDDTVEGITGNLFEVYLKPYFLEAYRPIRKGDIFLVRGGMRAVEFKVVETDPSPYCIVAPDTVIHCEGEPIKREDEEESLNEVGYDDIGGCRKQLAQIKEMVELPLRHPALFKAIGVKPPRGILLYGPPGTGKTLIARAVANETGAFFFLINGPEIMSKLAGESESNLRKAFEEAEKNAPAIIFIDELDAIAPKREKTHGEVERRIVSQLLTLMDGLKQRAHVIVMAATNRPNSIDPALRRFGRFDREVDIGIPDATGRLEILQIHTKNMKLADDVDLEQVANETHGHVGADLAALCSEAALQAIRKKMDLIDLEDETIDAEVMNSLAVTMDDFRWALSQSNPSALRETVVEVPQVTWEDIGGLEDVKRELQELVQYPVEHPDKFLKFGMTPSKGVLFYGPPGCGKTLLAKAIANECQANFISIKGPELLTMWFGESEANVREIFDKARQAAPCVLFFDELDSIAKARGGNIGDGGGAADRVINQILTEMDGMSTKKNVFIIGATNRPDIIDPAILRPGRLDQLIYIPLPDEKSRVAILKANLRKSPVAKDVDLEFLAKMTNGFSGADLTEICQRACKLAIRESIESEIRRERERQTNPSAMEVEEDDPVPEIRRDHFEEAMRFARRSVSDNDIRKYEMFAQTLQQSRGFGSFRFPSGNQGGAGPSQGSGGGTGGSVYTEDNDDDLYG

Binder | initial velocity of Ub-Rho hydrolysis by VCPIP1^ΔUBX (62.5 nM enzyme) in the presence of VCP (v0 = 754.0 RFU/min without VCP); no effect of VCP [RFU/min] | initial velocity of Ub-Rho hydrolysis by VCPIP1^(ΔVCPID ΔUBX) (62.5 nM enzyme) in the presence of VCP (v0 = 656.0 RFU/min without VCP); no effect of VCP [RFU/min]
B1 | 733 | 
B2 |  | 562
